Molecular target: CGS20
Assay: competition: pancreastatin peptide (0.5 µg per tube) added in second incubation of CGS06/CGS20* IRMA

% inhibition: 86%
B1: synthetic peptide corresponding to pancreastatin (SEQ ID NO:1 amino acids 250 to 301 of human CgA) (peptide)
peptide: GESRSEALAVDGAGKPGAEEAQDPEGKGEQEHSQQKEEEEEMAVVPQGLFRG
